# Data from publication PMC5345052, “Auto-phosphorylation Represses Protein Kinase R Activity” (Scientific Reports, 2017).
# B1: PKR K296R-S33E-T42E, recombinant His-tagged full-length protein kinase R (enzyme, human, UniProt P19525 1-551, looked up)
# chain: MAGDLSAGFFMEELNTYRQKQGVVLKYQELPNEGPPHDRRFEFQVIIDGREFPEGEGRSKKEAKNAAAKLAVEILNKEKKAVSPLLLTTTNSSEGLSMGNYIGLINRIAQKKRLTVNYEQCASGVHGPEGFHYKCKMGQKEYSIGTGSTKQEAKQLAAKLAYLQILSEETSVKSDYLSSGSFATTCESQSNSLVTSTLASESSSEGDFSADTSEINSNSDSLNSSSLLMNGLRNNQRKAKRSLAPRFDLPDMKETKYTVDKRFGMDFKEIELIGSGGFGQVFKAKHRIDGKTYVIRRVKYNNEKAEREVKALAKLDHVNIVHYNGCWDGFDYDPETSDDSLESSDYDPENSKNSSRSKTKCLFIQMEFCDKGTLEQWIEKRRGEKLDKVLALELFEQITKGVDYIHSKKLIHRDLKPSNIFLVDTKQVKIGDFGLVTSLKNDGKRTRSKGTLRYMSPEQISSQDYGKEVDLYALGLILAELLHVCDTAFETSKFFTDLRDGIISDIFDKKEKTLLQKLLSKKPEDRPNTSEILRTLTVWKKSPEKNERHTC
# notes: protein kinase R (PKR), human, full-length molecule with K296R and the phosphor-mimetic S33E and T42E; also called triple mutant; source: isolated by liquid chromatography as monomer and as dimer
# Biological target: the molecule itself
# Assay: liquid chromatography; recombinant PKR isolated during purification as separate monomer and dimer species
protein,measurement,value
B1,stoichiometry N,2
